Assay [1] has as its target macroH2A1 (endogenous; collective term for macroH2A1.1 and macroH2A1.2) (mouse (endogenous in C2C12 and MEF)). As to the kind of experiment: proximity ligation; duolink PLA in situ in control C2C12 cells; high-content screening microscopy (Operetta), nuclear spots of the full cell population counted with Harmony.
Assay [2] shares this target. As to the kind of experiment: proximity ligation; duolink PLA in situ in C2C12 stable knockdown lines (Scramble control, macroH2A2 knockdown); cells extracted before fixation to remove soluble Mcm2; EdU-positive cells; confocal imaging, spots per nucleus counted in FIJI.

Sequence of macroH2A1 (endogenous; collective term for macroH2A1.1 and macroH2A1.2) (mouse (endogenous in C2C12 and MEF)) (Q9QZQ8 whole entry): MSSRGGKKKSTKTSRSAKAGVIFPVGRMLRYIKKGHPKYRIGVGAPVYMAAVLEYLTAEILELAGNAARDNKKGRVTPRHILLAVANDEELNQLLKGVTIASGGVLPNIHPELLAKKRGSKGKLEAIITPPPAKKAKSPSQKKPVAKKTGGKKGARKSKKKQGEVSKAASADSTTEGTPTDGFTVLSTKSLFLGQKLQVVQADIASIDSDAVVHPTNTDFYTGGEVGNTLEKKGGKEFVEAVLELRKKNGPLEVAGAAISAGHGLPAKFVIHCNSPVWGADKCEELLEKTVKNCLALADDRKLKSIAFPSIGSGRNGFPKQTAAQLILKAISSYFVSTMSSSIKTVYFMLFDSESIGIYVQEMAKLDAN

As to “Mcm2 (subunit of the Mcm DNA helicase complex) (from UniProt P97310 1-904) (natural protein)”, the PLA spots per nucleus (spots per nucleus) in assay [1] was 15.1. Moreover, in assay [2], the PLA spots per nucleus (control Scramble cells) (spots per nucleus) was determined as 19.8 and the PLA spots per nucleus (macroH2A2 depleted cells) (spots per nucleus) is 18.2.

For the origin of these results see publication PMC11514477.
